Test results taken from patent US20260176659A1, “IMPROVED METHOD FOR THE PRODUCTION OF NATURAL VANILLIN” (BASE SE, priority 2022, published 2026).
Several values for one entry are separate records, joined by “and”; a condition that tells them apart may be missing. Identical values can stand only once.

Legend:
Format in all cases: biochemical
[1] = Bioconversion of eugenol to vanillin: one-pot concurrent cascade EUGO + alkene cleavage oxygenase (5 mM scale); conditions: for Reaction composition at 24 hours (%) 1a / Reaction composition at 24 hours (%) 2a / Reaction composition at 24 hours (%) 3a / Reaction composition at 24 hours (%) 5a / Conversion of 1a to 3a (%): EUGO fresh CFE 1 mg/mL, IECO 0 mg/mL; for Conversion of 1a to 3a (%): 24 h; for Reaction composition after 24 hours 1a (%) / Reaction composition after 24 hours 2a (%) / Reaction composition after 24 hours 3a (%) / Reaction composition after 24 hours 5a (%): Table 8a, CO-XX FD-CFE 1 mg/mL; for Reaction composition after 24 hours 1a (%) / Reaction composition after 24 hours 2a (%) / Reaction composition after 24 hours 3a (%) / Reaction composition after 24 hours 5a (%) / Product distribution after 24 hours 2a (%) / Product distribution after 24 hours 3a (%) / Product distribution after 24 hours 5a (%): EUGO FD-CFE 1 mg/mL, catalase 10 mg/mL, eugenol 5 mM; for Product distribution after 24 hours 2a (%) / Product distribution after 24 hours 3a (%) / Product distribution after 24 hours 5a (%): Table 8b, CO-0X FD-CFE 1 mg/mL
Method: Stock solutions of eugenol (100 mM) were prepared in ethanol or DMSO and stored at −20° C. Unless otherwise stated, the reaction mixtures (0.5 mL) were set up in 1.5 mL glass vials as follows: freeze-dried cell free extract of IECO/CO-XX (3 mg) and EUGO (0.5 mg) were dissolved in the reaction buffer (50 mM glycine-NaOH pH 9.0) containing sodium ascorbate (1 mM), FeSO4 (1 mM) and bovine liver catalase (5 mg, Sigma Aldrich C40). The reaction was initiated by the addition of 0.025 mL eugenol stock (final concentration 5 mM), then incubated at 30° C. and 120 rpm overnight (rotary shaker). The final content of cosolvent was 5% v/v. To improve oxygenation, the vials were placed horizontally. At certain time points, samples (0.2 mL) were quenched with methanol (0.4 mL) and the mixture was centrifuged at 20238 g for 5-10 mins. Finally, the supernatant was analysed by HPLC.
EUGO (0.5 mg CFE), CO-25 (3 mg CFE) and catalase (5 mg, Sigma product #C40) were dissolved in 50 mM Glycine-NaOH pH 9.0 or Tris-HCl pH 8.0 together with FeSO4 (1 mM) and sodium ascorbate (1 mM). Note that the buffer content of the freeze-dried biocatalyst prep was not considered for the assembling of the reaction. The reaction was started by the addition of 5 mM eugenol from a 20× stock in ethanol. The reactions—performed in glass vials—were then incubated at 30° C. and 120 rpm (25 mm shaker). Finally, samples of the reaction mixture were diluted with MeOH and analyzed by HPLC at 280 and 340 nm.

[2] = Biotransformation of eugenol to coniferyl alcohol by EUGO (50 mM scale)
Method: The biotransformation (total volume 3 mL) was performed in a 10 mL round bottom flask with a stir bar. Eugenol (0.023 mL, 25 mg, 0.15 mmol, 1.0 equiv., 50 mM final conc.) was dissolved in DMSO or ethanol (0.150 mL). Then, the solution was diluted with Tis-HCl buffer (50 mM, pH 8.0, 2.827 mL). To obtain a homogeneous dispersion of the eugenol droplets, the mixture was stirred for about 15-20 mins. Then bovine liver catalase (Sigma P #C40, 30 mg, 2300 kU) and EUGO (30 mg of freeze-dried cell free extract, Tris base salt content was neglected) were added consecutively (note: EUGO was added after the catalase was completely dissolved). The reaction was incubated at room temperature and gentle stirring (40 rpm) for 17-24 hours. At certain time points, samples (0.1 mL) were diluted with methanol (0.8 mL, 8 vol equiv.) for stopping the reaction. The samples were centrifuged at 20238×g for 10 mins and the supernatant was analyzed by HPLC. When the reaction was completed, the products were extracted with ethyl acetate (3×1.5 mL EtOAc, in 2 mL microcentrifuge tubes). The aqueous and organic phases were separated by centrifugation (20238×g for ˜3 mins). Then, the organic phase was dried with NaSO4 and concentrated under reduced pressure (40° C., 200 mbar), but not dried completely to avoid polymerization. The concentrate was directly purified by silica gel chromatography (10 mL column volume) using a mixture of 1:1 etylacetate:cyclohexane as eluent. Fractions containing coniferyl alcohol (according to TLC) were combined and concentrated under reduced pressure (40° C., 200 mbar). Final drying under high vacuum (1.5 mbar) and inert gas flow yielded the title compound as yellowish solid (24.2 mg, 0.134 mmol, 90% yield). Notes: The obtained product was stored at −20° C. under inert gas atmosphere. Evaporation of a product solution in chloroform induced polymerization, therefore, no crude NMR was taken before product purification.

[3] = Spectrophotometric enzymatic assay: cleaving activity, production of vanillin from coniferyl alcohol at 349 nm; conditions: spectrophotometric assay
Method: Stock solution 200× of coniferyl alcohol (90 mg) was prepared in ethanol (5 mL) and stored at −20° C. From this, a new stock solution 20× of coniferyl alcohol (10 mM) was freshly prepared by 1:10 dilution in Glycine-NaOH (50 mM, pH 9.0). A cuvette containing 0.750 mL Glycine-NaOH (50 mM, pH 9.0) and 0.05 mL of the substrate 20× stock was pre-warmed at 25° C. for 1.5 mins. Then, the reaction was initiated by the addition of 0.2 mL of the enzyme sample. The cleaving […] activity was measured spectrophotometrically following the production of vanillin at 349 nm (ε349=26.7 mM^−1cm^−1 experimentally determined). One unit of activity (U) is defined as the amount of enzyme required to produce 1 μmol of vanillin per min. Agilent Cary 60 UV-Vis Spectrophotometer was used for all the measurements.
Searching for alternative novel alkene cleavage oxygenases (COs) catalysing the formation of vanillin from coniferyl alcohol was performed. A set of 27 sequences and 10 COs from different branches of the phylogenetic tree were selected, named CO-02-11. Two additional enzymes were included, which are located in different clusters of the phylogenetic tree: Lignostillbene dioxygenase from Pseudomonas brassicaceraum (PbLSD, PDB: 5V2D) and aromatic dioxygenase (Ado, CO-01) from Thermothelomyces thermophilus (GenBank ID: XP_003665585). The proteins were recombinantly expressed in E. coli BL21(DE3), following the same protocol developed for IECO. […] Putative COs were screened by spectrophotometric assay, monitoring the formation of 3a upon 2a cleavage. From a set of twelve COs, four positive hits, namely CO-01, CO-03, CO-06 and CO-07 were found. Positive variants were tested in the one pot cascade and compared them with IECO In agreement with the spectrophotometric screening, all four COs converted eugenol 1a to vanillin 3a (Table 8). The first step of the cascade is efficiently performed by EUGO, and the substrate is completely consumed. […] Overall, 70±3% conversion of 1a to vanillin 3a was achieved.

[4] = EUGO FD-CFE 10 mg/mL, eugenol 50 mM, catalase 10 mg/mL, pH 8.0, 5% v/v DMSO, room temperature, 17 hours
[5] = EUGO FD-CFE 10 mg/mL, eugenol 50 mM, catalase 10 mg/mL, pH 8.0, 5% v/v DMSO, room temperature, 24 hours

B1: EUGO: eugenol oxidase from Rhodococcus jostii (Uniprot: Q0SBK1), SEQ ID NO: 2, used as cell free extract (protein)
chain: MTRTLPPGVSDERFDAALQRFRDVVGDKWVLSTADELEAFRDPYPVGAAEANLPSAVVSPESTEQVQDIVRIANEYGIPLSPVSTGKNNGYGGAAPRLSGSVIVKTGERMNRILEVNEKYGYALLEPGVTYFDLYEYLQSHDSGLMLDCPDLGWGSVVGNTLDRGVGYTPYGDHFMWQTGLEVVLPQGEVMRTGMGALPGSDAWQLFPYGFGPFPDGMFTQSNLGIVTKMGIALMQRPPASQSFLITFDKEEDLEQIVDIMLPLRINMAPLQNVPVLRNIFMDAAAVSKRTEWFDGDGPMPAEAIERMKKDLDLGFWNFYGTLYGPPPLIEMYYGMIKEAFGKIPGARFFTHEERDDRGGHVLQDRHKINNGIPSLDELQLLDWVPNGGHIGFSPVSAPDGREAMKQFEMVRNRANEYNKDYAAQFIIGLREMHHVCLFIYDTAIPEAREEILQMTKVLVREAAEAGYGEYRTHNALMDDVMATFNWGDGALLKFHEKIKDALDPNGIIAPGKSGIWSQRFRGQNL
modifications: cell free extract; Rhodococcus Jostii
Reaction composition at 24 hours (%) 1a ([1]; cosolvent DMSO 5% v/v, 5 mM 1a): 1≤ % | Reaction composition at 24 hours (%) 2a ([1]; cosolvent DMSO 5% v/v, 5 mM 1a): 96% | Reaction composition at 24 hours (%) 3a ([1]; cosolvent DMSO 5% v/v, 5 mM 1a): 1≤ % | Reaction composition at 24 hours (%) 5a ([1]; cosolvent DMSO 5% v/v, 5 mM 1a): 2% | Conversion of 1a to 3a (%) ([1]; cosolvent DMSO 5% v/v, 5 mM 1a): 1≤ % | Reaction composition at 24 hours (%) 1a ([1]; cosolvent EtOH 5% v/v, 5 mM 1a): 1≤ % | Reaction composition at 24 hours (%) 2a ([1]; cosolvent EtOH 5% v/v, 5 mM 1a): 97% | Reaction composition at 24 hours (%) 3a ([1]; cosolvent EtOH 5% v/v, 5 mM 1a): 1≤ % | Reaction composition at 24 hours (%) 5a ([1]; cosolvent EtOH 5% v/v, 5 mM 1a): 2% | Conversion of 1a to 3a (%) ([1]; cosolvent EtOH 5% v/v, 5 mM 1a): 1≤ % | time in which the oxidation step (1a to 2a) occurs ([1]; one pot concurrent cascade EUGO-IECO, 5 mM 1a, time studies): within the first two hours | 2a [2, 4]: 48 mM and 41 mM | Reaction composition (%) 2a [2, 4]: 95% and 76% | Reaction composition (%) 5a [2, 4]: 4% and 3% | 2a [2, 5]: 50 mM | Reaction composition (%) 1a [2, 5]: 0% | Reaction composition (%) 2a [2, 5]: 95% | Reaction composition (%) 5a [2, 5]: 5% | time within which the substrate was consumed ([2]; EUGO cell free extract, 50 mM 1a): ≤ 24 h

B2: CO-01: aromatic dioxygenase from Thermothelomyces thermophilus (GenBank XP_003665585), SEQ ID NO: 26 (protein, listed as Thermothelomyces thermophilus)
chain: MAHIHDLAPEVSNYSSGRLTPPTPVRFPRTPVFASMNKPCRFEGDVFDLEVSGAIPPDIDGTFFRVQPDHRFPPLFEDDIHFNGDGSVTAIRISGGHADLRQRYVRTERYLLETRARRSLFGRYRNPWTDNESVRGVIRTASNTNVVFWRGALLAMKEDGPPFAMDPVTLETLGRYDFEGQILSPTFTAHPKIDPDTGEMVCFAYEAGGDGSDCSVDVAVWTVDADGKKVEECWYKAPFAGMIHDCGITKNWVVLPLTPIKMDLERMKRGGNKFAWDPSEDQWYGVVPRRGAKSDDIIWFRADNGFHGHVAGCYELPSGEIVFDLTVADGNVFFFFPPDDNITPPADGVAKRNRLSSPTVRWIFDPKAKKSAIRTEAAGDADIWVADERVKPALTWPTNGEFSRIDDRYVTKPYRHFWQAVVDPTRPYDFEKCGPPAGGLFNCLGHYTWSDQNYHHGHNTGDPSGDGRSNGSAEEATAGKFGLQDVYFAGPTMTFQEPTFIPRQGAAEGEGYLIALLNHLDELRNDVVIFEARNLGKGPLAVIHLPLKLKLGLHGNWVDSREIEAWRRRRAENGDVGPLRVAKEPLPWQKKFAAAAQNGSNGV
Reaction composition after 24 hours 1a (%) ([1]; pH 8.0): ≤1% | Reaction composition after 24 hours 2a (%) ([1]; pH 8.0): 74% | Reaction composition after 24 hours 3a (%) ([1]; pH 8.0): 9% | Reaction composition after 24 hours 5a (%) ([1]; pH 8.0): 17% | Reaction composition after 24 hours 1a (%) ([1]; pH 9.0): 51% | Reaction composition after 24 hours 2a (%) ([1]; pH 9.0): 63% | Reaction composition after 24 hours 3a (%) ([1]; pH 9.0): 13% | Reaction composition after 24 hours 5a (%) ([1]; pH 9.0): 24% | Screening of putative COs: formation of 3a upon 2a cleavage (hit or inactive) [3]: positive hits

B3: CO-24: alkene cleavage oxygenase, Pseudomonas ogarae, SEQ ID NO: 132 (protein, listed as Pseudomonas ogarae)
chain: MSIPFPQTPEFSGVLYTPSRVEAEVFDLEIEGILPASICGTFYQVAPDPQYPPMLGNDIFFNGDGVVSRFNFANGKVSMRRRYVKTDRLLAQRREGRSLNGVYRNVYTNDPLAAKNNTTANTTVIPHNGVLLALKEDALPWALDLETLETLGEWTFDGQIKAATFTAHPKLDPVTGNLLACSYEAKGDGTPDLAYFEISPDGKLLHEIWFQAPYAAMVHDFAVTERYVVFPLIPLTVDVERMKNGGPHFQWQPDLPQLFAIVPRNGCGQDVRWFKGPKDGFQGHTLNAFDEDGKVYVDMPVTGGNIFYFFPQADGYVPPPETLAASLMRWTFDLNGAQEDVQPQPLTEYPCEFPRCDDRYIGRKYQHGFLLAFDPERPYNPANGPIPFQFFNLLAHLDLQTGRTDAWFPGDSGCFQEPIFIPRSADAEEADGYVVALLNLIAEGRSELVVLDTRDMASGPIARIRIPFRMRMSLHGCWAPND
Product distribution after 24 hours 2a (%) ([1]; pH 8.0): 78.5% | Product distribution after 24 hours 3a (%) ([1]; pH 8.0): 6.1% | Product distribution after 24 hours 5a (%) ([1]; pH 8.0): 15.4% | Product distribution after 24 hours 2a (%) ([1]; pH 9.0): 73.9% | Product distribution after 24 hours 3a (%) ([1]; pH 9.0): 5.6% | Product distribution after 24 hours 5a (%) ([1]; pH 9.0): 20.5%
